Experimental data reported in publication PMC7386247.

system: PARP1 (Homo sapiens); experiment: fluorescence polarization; settings: not stated in the material (methods in supplement)

| Substance | Kd [nM] |
| --- | --- |
| p18mer DNA | 13 |
| gas5 | 350 |
| tRNALeu | 159 |

system: PARP2 (Homo sapiens); experiment: fluorescence polarization; settings: not stated in the material (methods in supplement)

| Substance | Kd [nM] |
| --- | --- |
| p18mer DNA | 59 |
| gas5 | 40 |
| tRNALeu | 37 |
| 19mer | 55 |
